Data: article PMC11425217, “CCDC68 Maintains Mitotic Checkpoint Activation by Promoting CDC20 Integration into the MCC” (Advanced Science, 2024)
Each block holds one binder with its values, some of them ahead of it.

What was measured:
GST‐CDC20 [1] = molecular target: T1, GST‐CDC20 (human (cDNA from HEK293T cells), UniProt Q12834 1-499); assay: pull-down; purified MBP, MBP‐CCDC68‐FL or MBP‐CCDC68‐Δ280–300 incubated with GST‐CDC20; Coomassie staining and immunoblot; details: both partners purified
T1 construct: CDC20, full-length cDNA amplified from HEK293T cell cDNA; The legend names no limits; source: E. coli BL21, purified (Glutathione Sepharose 4B)

GST‐CDC20 [2] = molecular target: T1, GST‐CDC20; assay: pull-down; purified CCDC68 (50 nM) incubated with GST or the GST fusion protein; Coomassie staining and immunoblot; details: both partners purified

T1 sequence (Q12834 whole entry): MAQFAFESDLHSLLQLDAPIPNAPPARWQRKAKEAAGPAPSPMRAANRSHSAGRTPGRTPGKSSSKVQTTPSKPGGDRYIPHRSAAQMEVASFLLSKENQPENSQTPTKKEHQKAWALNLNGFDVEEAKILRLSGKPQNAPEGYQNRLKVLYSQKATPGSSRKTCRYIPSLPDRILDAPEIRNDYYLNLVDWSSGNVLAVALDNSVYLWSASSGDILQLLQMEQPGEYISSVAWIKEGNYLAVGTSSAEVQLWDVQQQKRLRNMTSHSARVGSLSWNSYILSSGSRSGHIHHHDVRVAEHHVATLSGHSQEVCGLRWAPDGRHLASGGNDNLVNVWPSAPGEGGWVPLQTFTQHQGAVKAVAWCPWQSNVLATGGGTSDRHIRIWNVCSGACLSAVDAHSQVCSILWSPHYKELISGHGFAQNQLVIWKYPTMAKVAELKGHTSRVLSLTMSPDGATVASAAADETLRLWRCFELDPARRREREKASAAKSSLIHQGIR

binding result (GST‐CDC20 [1]): binds
B1: MBP‐CCDC68‐Full length (FL) (natural protein, human (cDNA from HEK293T cells), UniProt Q9H2F9 1-335, looked up)
chain: MTTVTVTTEIPPRDKMEDNSALYESTSAHIIEETEYVKKIRTTLQKIRTQMFKDEIRHDSTNHKLDAKHCGNLQQGSDSEMDPSCCSLDLLMKKIKGKDLQLLEMNKENEVLKIKLQASREAGAAALRNVAQRLFENYQTQSEEVRKKQEDSKQLLQVNKLEKEQKLKQHVENLNQVAEKLEEKHSQITELENLVQRMEKEKRTLLERKLSLENKLLQLKSSATYGKSCQDLQREISILQEQISHLQFVIHSQHQNLRSVIQEMEGLKNNLKEQDKRIENLREKVNILEAQNKELKTQVALSSETPRTKVSKAVSTSELKTEGVSPYLMLIRLRK
notes: CCDC68, full-length cDNA amplified from HEK293T cell cDNA; Vector pCold‐MBP; also called MBP‐CCDC68‐FL; source: E. coli BL21, purified (Amylose Beads, eluted with maltose)

binding result (GST‐CDC20 [2]): binds
B2: Purified CCDC68 (recombinant, from bacteria) (natural protein, human (cDNA from HEK293T cells), UniProt Q9H2F9 1-335, looked up)
chain: B1 chain
notes: CCDC68, full-length cDNA amplified from HEK293T cell cDNA; The legend names no limits; also called recombinant CCDC68; source: E. coli BL21, purified (eluted by cleaving the tag with PreScission protease)
